Reference: PMC9481161

Target: His6-MglB (Myxococcus xanthus) (UniProt Q1DB03)
UniProt Q1DB03, sequence (Q1DB03 entry or part of it): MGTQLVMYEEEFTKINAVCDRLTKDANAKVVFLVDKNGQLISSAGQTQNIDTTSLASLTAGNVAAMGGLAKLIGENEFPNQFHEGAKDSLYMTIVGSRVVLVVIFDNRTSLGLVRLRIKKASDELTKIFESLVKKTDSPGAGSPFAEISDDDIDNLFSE

MglA GTPase activity, malachite green-based assay; 3 μM MglA-His6 mixed 1:2:2 with MglB and Strep-RomY (against ~18 with MglB alone): 31 GTP/MglA/hr
MglA GTPase activity, regenerative coupled enzyme assay; 3 μM MglA-His6 mixed 1:2:2 with MglB and Strep-RomY (against ~12 with MglB alone): 25 GTP/MglA/hr
Substance: Strep-RomY (natural protein)
